We go through 133 substances from the supplement of paper PMC12042874.

± gives the uncertainty stated by the source.

The nature of this data set: amyloid nucleation score (Sup35N fusion, yeast selection) (log enrichment); library NNK3; higher = more nucleation; inactive = no reads after selection. A digest of the protocol:
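Libraries of peptides of 20 random codons fused to Sup35N were expressed in psi-negative yeast and induced 24 hours with 100 μM copper sulfate. Selection was 7 days at 30°C on medium lacking adenine and uracil, and plasmid inserts were Illumina-sequenced before and after selection. Nucleation score is the DiMSum log enrichment of output over input reads, centred on the mode score of non-aggregating sequences, and sequences with under 100 input reads were left out.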
As to PWRCKRWHFYMYVDCANLRQ, the amyloid nucleation score entry was “inactive”. DIFCLVVTYAERLLYLKTRT displayed an amyloid nucleation score of -0.09 ± 0.75. For AVSTTTSMVINRLRACKYAY, the amyloid nucleation score result is “inactive”. For the substance SYTKDVV, the amyloid nucleation score result is “inactive”. Regarding LGCTGALNNRCCERQANGRQ, the amyloid nucleation score entry was “inactive”.

As to IHKCYT, the amyloid nucleation score entry is “inactive”. As for SSPDCNYNECVPGACERRGF, the amyloid nucleation score result is “inactive”. With MRSLGSAMWR, the amyloid nucleation score result is “inactive”.

In the case of TTEPDRATLSYR, the amyloid nucleation score result is “inactive”. Turning to TPLFHWKNQVSRSFLVWNDL, the amyloid nucleation score entry was “inactive”.

Turning to LFTDPCCTIGMSFRV, the amyloid nucleation score was determined as 1.08 ± 0.075. For IFVKDFLII the value was “inactive”. With LDYPNVCMDFLSKVFRDSVR, the amyloid nucleation score entry is “inactive”.

Regarding LHIHRFWQQPHTNAGRIPHP, the amyloid nucleation score result is “inactive”.

SVTLRLVFRCP: the amyloid nucleation score amounted to 1.05 ± 0.15. As to NRILGGNLYVNVIDRIGGMV, the amyloid nucleation score entry is “inactive”. RGSCRLVNLEPCRIM: the amyloid nucleation score result is “inactive”. On to RGKNVAWWVTSSTKSYSAK, for which the amyloid nucleation score worked out at 0.304 ± 0.23. Consider VRSHPCSGGTLVGWDSYW, for which the amyloid nucleation score was 1.01 ± 0.14. QSNFLFLDFANVYSHKQWCL: the amyloid nucleation score was found to be 1.71 ± 0.066.

PNNSIHQIICYIWNEYTWSC had an amyloid nucleation score of 2.55 ± 0.059. The same measure for YCHILTLATVMKPTFERAPS: “inactive”; for VFCPTWFTMGGVCIAVAHLV: 0.486 ± 0.33; for FNLLHTRMTLLYSNIRNRYN: 0.358 ± 0.62.

For the substance GLSRCSPWKASSDDRRRLSD, the amyloid nucleation score entry is “inactive”. The same measure for RSEPIKVVWVSISQPMDFFC: 2.13 ± 0.077; for INYSWFDLSMALTK: “inactive”. For SNVNTAWKRFTRI, the amyloid nucleation score result is “inactive”.

For MITLDCLNNNI, the amyloid nucleation score result is “inactive”.

For SFFARGVFFAIRQARQGNSG, the amyloid nucleation score entry is “inactive”. Turning to LYLYYSSTVSLVKYSNEVNC, the amyloid nucleation score entry was “inactive”. Consider LIACNVPVVEVRTSIGVKDI, for which the amyloid nucleation score result was “inactive”. With WSYIVLTVLTWVACCTFWFV, the amyloid nucleation score is -0.436 ± 0.49.

For GSFTASFDGFQGSIMVERGG, the amyloid nucleation score entry was “inactive”. In the case of IIRVRQTLSVRFIYIF, the amyloid nucleation score entry was “inactive”. Turning to YAWGYSSWETRN, the amyloid nucleation score result was “inactive”.

With KYHMFRWGLSC, the amyloid nucleation score entry was “inactive”.

Turning to RVKQQLNLP, the amyloid nucleation score entry is “inactive”. For the substance HDAVLI, the amyloid nucleation score entry was “inactive”. On to VLVCYC, for which the amyloid nucleation score result is “inactive”. For the substance TGSVFVKDGTLWPTCVDLIG, the amyloid nucleation score result is “inactive”. Take SVRTSAYYKFQRTERVSMCM: the amyloid nucleation score entry was “inactive”. For LLLRCANHFCYMDATDIYFR the value was “inactive”; for DSVFNL, “inactive”. With MVCEKERTWVTSRHWLERYR, the amyloid nucleation score was -0.203 ± 1.3. The same measure for YIETISPFLCGCYSIFSPMI: 2.8 ± 0.084; for IRSERTLDSATWDPFVVLKD: “inactive”; for HSQKTTKALRNPSNIQ: “inactive”.

With TNFAYMQREGS, the amyloid nucleation score result was “inactive”. In the case of ELRLHNFTFRLVASFWLLRV, the amyloid nucleation score result is “inactive”.

In turn, FIYSGYTSVNKILGFYNHDS showed an amyloid nucleation score of 0.95 ± 0.16.

As for DLPSMSIVIVIQKLYARVNR, the amyloid nucleation score result is “inactive”. For SFSWLTFPRGSDNFQDWHCI the value was 0.56 ± 0.31; for RSKLYEISRIRKMGHPHTAE, “inactive”; for IRFQSYRLASSSLVCDCVFC, 0.627 ± 0.31. With GFAISQAYALSTPFVCISAI, the amyloid nucleation score entry is “inactive”.

Consider QSFQRSVYFSSKGNTEGLFS, for which the amyloid nucleation score entry was “inactive”. For DLVTSTGYSGVNAVSDIEDF the value was “inactive”. As to YMSFIYGSKR, the amyloid nucleation score came to 1.78 ± 0.07. With SSDFTSWDVREILGRAVVLC, the amyloid nucleation score result was “inactive”. Regarding WLFNYRILCLSVMWFTKSIE, the amyloid nucleation score result is “inactive”.

For the substance NVVCNDPPPGVYEDLGWTGI, the amyloid nucleation score result was “inactive”. Regarding SVFRSMSTSILVFSPVHYCE, the amyloid nucleation score result is “inactive”.

As to YVRWCQWYGETDGPCCRNTV, the amyloid nucleation score result was “inactive”.

In the case of NFGVMLGVNTLSMSSRVVLG, the amyloid nucleation score turned out to be 0.6 ± 0.26. LGRRLAMSV came in with an amyloid nucleation score of 0.692 ± 0.19. Turning to RDRGKY, the amyloid nucleation score result was “inactive”.

Regarding SCEDVVANVLLYCRISGHWG, the amyloid nucleation score result was “inactive”. The same measure for NPLFMQSLKLRCCRNLRFRS: “inactive”; for LKYSSDQYLCRTFLGISGFG: “inactive”; for TSGQSVVSSRTHCVIRCRRR: “inactive”.

Take AELSIADPTEMSGRVFACNV: the amyloid nucleation score result was “inactive”. As for LLVSFLVVLSWAVRFSRMGD, the amyloid nucleation score result is “inactive”. As to RVDSYVSMTYHIRWFFVRTE, the amyloid nucleation score entry was “inactive”.

As for CNYLTMSGF, the amyloid nucleation score entry was “inactive”. The same measure for ARLHVILCDGCHVRMCPEMG: “inactive”; for PVTDLWLTFS: “inactive”. For MINWHSRMSSEG, the amyloid nucleation score entry was “inactive”.

As to SNFAMGVRLY, the amyloid nucleation score result is “inactive”. For the substance NMVYLGDLTITMSTFDAFR, the amyloid nucleation score amounted to 0.53 ± 0.18.

AIYLSFRGNA gave an amyloid nucleation score of 1.65 ± 0.071. The same measure for RRFIIPRAVAFTSL: “inactive”. As to RPRRTCWM, the amyloid nucleation score entry is “inactive”. Turning to WKLASVFAVSMR, the amyloid nucleation score entry is “inactive”. For NDFIVECMTVESS the value was “inactive”; for LIRTIEYLGRRISSQGCLHT, “inactive”. Regarding HTDWICYRRWYCIASRAMYQ, the amyloid nucleation score result is “inactive”. TLAIGLIDEFRLHA yielded an amyloid nucleation score of 1.09 ± 0.13. KDYGLADGERHESM: the amyloid nucleation score result is “inactive”. GRIGTVGWGISLHYVYTDRA registered an amyloid nucleation score of 0.547 ± 0.2.

In the case of RGAPVFCFYKWFSTATCSIA, the amyloid nucleation score entry is “inactive”. As for FHMFMTYTWYPVI, the amyloid nucleation score result is “inactive”. The same measure for SGQSNDCVMDVWMDM: “inactive”; for DVVGLVAGIVVKLILCSHYG: “inactive”. The same measure for MFKNILCVHVLTSAGT: “inactive”; for FYCGIWAYVEDCC: 2.53 ± 0.057. For LVGTRRLSSYRHRFKWITIG the value was “inactive”; for YFFVSWFRCMGPILSFTRVV, “inactive”; for LTSLLTARKNCTNFHN, “inactive”.

DGMFSFGSLCRYAELETSGK: the amyloid nucleation score result was “inactive”. For SSSKNACDPC the value was “inactive”. Regarding LRHWRMRLSIGN, the amyloid nucleation score result is “inactive”. For QNHTVHSARWDNGSTANTTT, the amyloid nucleation score result was “inactive”.

With FCTFSLRHYVTKNGPVCPTK, the amyloid nucleation score result is “inactive”. The same measure for DVGLAVNTSHLWSYT: “inactive”; for GMNKLL: “inactive”; for SYCDSNRGVDLV: -0.611 ± 0.75. Substance QNVWSSVDNRWSIVENCTMA yielded an amyloid nucleation score of 0.464 ± 0.37. The substance PGYSFKVSA gave an amyloid nucleation score of -1.06 ± 2.5. Substance YPHLMK had an amyloid nucleation score of 1.54 ± 0.12. Turning to LLLSEREGIYVVWVWCRWPV, the amyloid nucleation score result was “inactive”. As for MIGNITMGLMSLDSGKRSVN, the amyloid nucleation score result was “inactive”. Take KTDIPGNHFLTSARLCAG: the amyloid nucleation score entry is “inactive”. For YMLMGMVLRDRDRT the value was 1.69 ± 0.088; for SRRFFRWLSYTFGDGRGWLL, “inactive”. With RANWLGLVTVGS, the amyloid nucleation score entry is “inactive”. Take VVCIHLVVDTVC: the amyloid nucleation score entry was “inactive”. Take IMLLLYSESYLTPRTVVNSR: the amyloid nucleation score result was “inactive”.

Turning to WVRRYV, the amyloid nucleation score result was “inactive”. For GIRLIECS the value was “inactive”; for ICYTLVTN, “inactive”; for SRRSSS, 1.28 ± 0.11. With FLSLC, the amyloid nucleation score entry is “inactive”. For the substance ANLADKILFFGSPCRVMHPV, the amyloid nucleation score result was “inactive”. For DIFSRSVS, the amyloid nucleation score result is “inactive”. With TVRKSSIGGCVASYPFEHNK, the amyloid nucleation score result was “inactive”. For YKIRFSLYVEHSVVLYVQY the value was “inactive”; for DIKVMNLCLNWFFRLIHGV, “inactive”; for INPFLHMVTSLIVEFRVLNC, “inactive”. Take TPLESGLSI: the amyloid nucleation score result is “inactive”. As for ILTGNGYDSTRKAYCQFWCF, the amyloid nucleation score entry was “inactive”. On to AYVSHINDMPAFGPKSNKPS, for which the amyloid nucleation score was -0.19 ± 0.81. Take AAVWRVVKRNLCHEIGERTA: the amyloid nucleation score result is “inactive”.
